For orientation: stoichiometry N means the number of molecules, sites or subunits per partner or assembly.

Changes are numbered by the printed parent chain. In names and notes the source's numbering stands.

The source of these data is article PMC6778850, “The flavin mononucleotide cofactor in α-hydroxyacid oxidases exerts its electrophilic/nucleophilic duality in control of the substrate-oxidation level” (Acta Crystallographica. Section D, Structural Biology, 2019).

The data set concerns the molecule itself. Put plainly: SEC; analytical gel filtration on a Superdex 200 16/20 column; 5-deaza-FMN-reconstituted protein after the refolding process; self-association (tetramer).

B1: p-hydroxymandelate oxidase (Hmo), 5-deaza-FMN-containing (enzyme, Amycolatopsis orientalis)
chain: MTYVSLADLERAARDVLPGEIFDFLAGGSGTEASLVANRTALERVFVIPRMLRDLTDVTTEIDIFGRRAALPMAVAPVAYQRLFHPEGELAVARAARDAGVPYTICTLSSVSLEEIAAVGGRPWFQLYWLRDEKRSLDLVRRAEDAGCEAIVFTVDVPWMGRRLRDMRNGFALPEWVTAANFDAGTAAHRRTQGVSAVADHTAREFAPATWESVEAVRAHTDLPVVLKGILAVEDARRAVDAGAGGIVVSNHGGRQLDGAVPGIEMLGEIVAAVSGGCEVLVDGGIRSGGDVLKATALGASAVLVGRPVMWALAAAGQDGVRQLLELLAEEVRDAMGLAGCESVGAARRLNTKLGVV
notes: p-hydroxymandelate oxidase (Hmo), product of the hmo gene (orf22) amplified from Amycolatopsis orientalis genomic DNA, cloned in pET-28a(+); no removal of the His6 tag is described; also called 5-deaza-Hmo; wild-type Hmo; source: E. coli BL21(DE3), purified (Ni-NTA, gel filtration); deflavinated and reconstituted with 5-deaza-FMN on an Ni-NTA column
Turning to B1, the “stoichiometry N” value stood at 4.

B2: p-hydroxymandelate oxidase (Hmo) Y128F mutant, 5-deaza-FMN-containing (enzyme, Amycolatopsis orientalis)
chain: B1 chain with Y128F
notes: p-hydroxymandelate oxidase (Hmo), product of the hmo gene (orf22) of Amycolatopsis orientalis, point mutant Y128F made with QuikChange; no removal of the His6 tag is described; source: E. coli BL21(DE3), purified (same protocol as wild-type Hmo); deflavinated and reconstituted with 5-deaza-FMN on an Ni-NTA column
On to B2, for which the “stoichiometry N” value was 4.
